Experimental data published in the supplement of paper PMC7125110.
± gives the standard error. This sample holds only a part of the variants without activity.

B1: glmS ribozyme (parent)
chain: AUAAAAGCGCCAGAACUACAGAAAUGUAGUUGACGAGGAGGAGGUUUAUCGAAUUUUCGGCGGAUGCCUCCAAA

Tests used:
Conditions in all cases: with glucosamine-6-phosphate
glucosamine-6-phosphate [1] = variants of: B1; assay: self-cleavage kobs at 640 uM GlcN6P; higher = faster cleavage; RNA array
Method in brief: (§1)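 kobs was derived by fitting per-tile medians to one- or two-exponential decays after normalising signals to baseline and to non-cleaving reference variants. Those signals came from barcoded ribozyme variants transcribed in situ by E. coli RNA polymerase on sequenced MiSeq chips, followed through a hybridised Cy3 probe at 37 °C and imaged over ~14 h. Glucosamine-6-phosphate (40 μM to 10 mM) in HEPES/KCl/Mg(OAc)2 buffer was flowed in. Weighted Michaelis–Menten fits across concentrations then gave kcat and KM.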

glucosamine-6-phosphate [2] = variants of: B1; assay: self-cleavage kobs at 2500 uM GlcN6P; higher = faster cleavage; RNA array
Method in brief: as §1

glucosamine-6-phosphate [3] = variants of: B1; assay: self-cleavage kobs at 10000 uM GlcN6P; higher = faster cleavage; RNA array
Method in brief: as §1

Variant | self-cleavage kobs at 640 uM GlcN6P (glucosamine-6-phosphate [1]) [s⁻¹] | self-cleavage kobs at 2500 uM GlcN6P (glucosamine-6-phosphate [2]) [s⁻¹] | self-cleavage kobs at 10000 uM GlcN6P (glucosamine-6-phosphate [3]) [s⁻¹]
C16U A39G C58A | 9.4e-05 ± 1.7e-05 | 0.000347 ± 4.1e-05 | –
C34U U55A U57G C61U | < 1e-05 | – | < 1e-05
G29U A33U G44A | < 1e-05 | < 1e-05 | –
A33U G41U G60C | < 1e-05 | – | –
C16A G32A C34A | < 1e-05 | < 1e-05 | < 1e-05
C34G A36G C71U | < 1e-05 | – | –
C34A C67A | < 1e-05 | – | < 1e-05
A33C C61A A64U C68U | < 1e-05 | – | –
G32C G35U A36C C68A | < 1e-05 | < 1e-05 | –
C16A G66U C68G | 6.61e-05 ± 2.5e-05 | 6.82e-05 ± 2.8e-05 | –
C16A G66U C68A | 0.0001 ± 3.2e-05 | – | –
C16A G63U C67U | 0.000112 ± 4.7e-05 | – | –
U31A A42U U57A A64G C71A | < 1e-05 | – | –
U31A A42U G59U | < 1e-05 | – | –
G32U U56A C68G | 0.000222 ± 9e-05 | – | –
G29U A42G G62C | < 1e-05 | – | –
U30G A42G U45C C70A C71A | < 1e-05 | – | –
G32U A64C C71A | < 1e-05 | < 1e-05 | –
G29C A33C C34G G38C A52G | < 1e-05 | – | –
G29C U47A C50A | < 1e-05 | – | < 1e-05
G29C G43U A64U C68G | < 1e-05 | – | –
U31G G44A C68U | < 1e-05 | – | –
U30A C71G | 0.000371 ± 0.00016 | 0.000129 ± 5.8e-05 | 0.00032 ± 7.6e-05

Variant | self-cleavage kobs at 640 uM GlcN6P (glucosamine-6-phosphate [1]) [s⁻¹] | self-cleavage kobs at 2500 uM GlcN6P (glucosamine-6-phosphate [2]) [s⁻¹] | self-cleavage kobs at 10000 uM GlcN6P (glucosamine-6-phosphate [3]) [s⁻¹]
U31A U55G C67U | 0.000859 ± 0.00023 | 0.000519 ± 0.00025 | –
G29C U49C C50G G51U U65C | < 1e-05 | < 1e-05 | –
C34A C67A C71U | < 1e-05 | – | –
U30A A33C G40A C71U | < 1e-05 | – | –
G29C G40C C58G | < 1e-05 | – | –
U31A U47C U54G | 0.000284 ± 6e-05 | 0.00068 ± 0.00013 | –
G29U A33U U56A A64G | < 1e-05 | – | –
U31C G60A U69A | < 1e-05 | – | –
C34U C70A | 0.00139 ± 0.00062 | – | –
G29U U69A C71G | 8.16e-05 ± 3.4e-05 | – | –
G32A G44U A53C | < 1e-05 | < 1e-05 | –
C16U U46C C50U | < 1e-05 | – | –
C16U A53U U54G C58A | 3.02e-05 ± 1.5e-05 | 3.59e-05 ± 1.1e-05 | 0.000172 ± 2e-05
U30C U31A U45A | 0.00111 ± 0.00052 | 0.000661 ± 0.0003 | –
U31A G60U C71A | < 1e-05 | < 1e-05 | –
C16A C68G | 0.000279 ± 0.00013 | 3.3e-05 ± 9.2e-06 | –
G29A A36C | < 1e-05 | < 1e-05 | < 1e-05
U30C C34A | < 1e-05 | – | < 1e-05
A33U C34U A36C U69G | 0.000124 ± 6e-05 | – | –
A33C G44U C71A | < 1e-05 | < 1e-05 | –
U31C A42U G44A | < 1e-05 | < 1e-05 | –
U31A G32A G59U G62A | < 1e-05 | – | –
G26U G60A C68A | 9.37e-05 ± 4.6e-05 | – | –

Variant | self-cleavage kobs at 640 uM GlcN6P (glucosamine-6-phosphate [1]) [s⁻¹] | self-cleavage kobs at 2500 uM GlcN6P (glucosamine-6-phosphate [2]) [s⁻¹] | self-cleavage kobs at 10000 uM GlcN6P (glucosamine-6-phosphate [3]) [s⁻¹]
A33U U45C C50A | < 1e-05 | < 1e-05 | –
A33C A53U G59A U69G | 0.000208 ± 8.8e-05 | – | –
G29C U55G C71A | 0.000503 ± 0.00015 | 5.43e-05 ± 1.3e-05 | –
U31C U46C | 7.34e-05 ± 2.3e-05 | 0.000204 ± 3.7e-05 | 0.000295 ± 8e-05
U31C G43A | < 1e-05 | < 1e-05 | –
A33C G43U G63U | < 1e-05 | < 1e-05 | < 1e-05
C16A G59U G60A | < 1e-05 | – | –
G29C A42G G43U G51C G62C | < 1e-05 | – | –
A33U G44U U46G | < 1e-05 | < 1e-05 | –
C16G A33U A52U C61U C71U | < 1e-05 | – | –
U17G G63A | < 1e-05 | < 1e-05 | –
C16A G44C U54C | < 1e-05 | – | –
U31C G60U G63C | < 1e-05 | – | –
C34U U55C C67U | < 1e-05 | – | –
G32A U49G C58G G63U U69G | 0.000279 ± 9.2e-05 | 0.000153 ± 3.7e-05 | –
G29C G51A C67G C68G U69G | 5.75e-05 ± 2.7e-05 | – | –
A33C C34A U57G | < 1e-05 | – | –
C16U U30A G44C G63C | < 1e-05 | – | < 1e-05
A33U G41A C58A U65G | < 1e-05 | < 1e-05 | –
U30C G51A U65G | < 1e-05 | < 1e-05 | –
U31C A52C C71A | < 1e-05 | – | –
C16U A36U G59U A64U | < 1e-05 | – | –
